These results are taken from patent publication US20240392014A1 (OREGON HEALTH AND SCIENCE UNIVERSITY, published 2024).

The target in this experiment is T1, CCR5 on CD4+ T cells of a Mauritian cynomolgus macaque (Mauritian cynomolgus macaque, UniProt P61814 1-352).
T1 construct: also called cynomolgus macaque CCR5
Description: in vivo CCR5 receptor occupancy on CD4+ T cells after AAV9-huLeron, flow cytometry; also near full CCR5 RO in mesenteric lymph nodes and spleen. As for the experimental part: The ability of the leronlimab-delivering AAV to transduce myocytes, trigger them to produce leronlimab, and subsequently contain CCR5-tropic retroviral replication was tested. An AAV9 encoding human Fc leronlimab (AAV9-huLeron) was administered at 2×10¹² AAV genomes/kg of to a Mauritian cynomolgus macaque (MCM) chronically infected with the CCR5-tropic virus SHIVSF162P3. […] Leronlimab was detectable in plasma at week 3 after administration of leronlimab-AAV following achievement of full CCR5 receptor occupancy in peripheral blood (FIGS. 2A and 2C). Leronlimab persisted in the plasma for one year post leronlimab-AAV administration (FIG. 2A) without appearance of any ADA (FIG. 2B). Following leronlimab-AAV administration and full CCR5 RO on peripheral blood CD4+ T cells, plasma viral loads fell to undetectable levels. Plasma viremia “blips” that coincided with transient dips in CCR5 RO and plasma leronlimab levels were observed. Finally, CD4+ T cells from mesenteric lymph nodes (LN) and spleen maintained near full CCR5 RO (FIG. 2D). Cell-associated SHIV DNA (FIG. 2E) and RNA (FIG. 2F) decreased in blood and spleen, with minimal decreases in mesenteric LN.
(In general: A flow cytometer gives signals particle by particle.)

B1: human Fc leronlimab (expressed in vivo from AAV9-huLeron) (antibody, V domains shown)
VH: EVQLVESGGGLVKPGGSLRLSCAASGYTFSNYWIGWVRQAPGKGLEWIGDIYPGGNYIRNNEKFKDKTTLSADTSKNTAYLQMNSLKTEDTAVYYCGSSFGSNYVFAWFTYWGQGTLVTVSS
VL: DIVMTQSPLSLPVTPGEPASISCRSSQRLLSSYGHTYLHWYLQKPGQSPQLLIYEVSNRFSGVPDRFSGSGSGTDFTLKISRVEAEDVGVYYCSQSTHVPLTFGQGTKVEIK
notes: also called PRO 140; PRO140
As for B1, the binding result is “binds”.
